Literature values, collected in PMC7615502.

Columns and labels:
IL-2Rα (Homo sapiens) = IL-2Rα (Homo sapiens) (UniProt P01589)
IL-2Rβγ (Homo sapiens) = IL-2Rβγ (Homo sapiens) (UniProt P14784)
Chain of UniProt P14784 (P14784 27-240, chain 1 of 2): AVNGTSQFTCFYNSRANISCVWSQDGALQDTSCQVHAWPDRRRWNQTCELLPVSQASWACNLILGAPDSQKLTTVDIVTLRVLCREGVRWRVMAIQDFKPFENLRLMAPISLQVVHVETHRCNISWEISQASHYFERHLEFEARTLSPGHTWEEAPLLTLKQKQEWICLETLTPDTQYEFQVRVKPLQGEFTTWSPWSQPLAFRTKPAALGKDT
Chain of UniProt P14784 (P31785 23-262, chain 2 of 2, further chain): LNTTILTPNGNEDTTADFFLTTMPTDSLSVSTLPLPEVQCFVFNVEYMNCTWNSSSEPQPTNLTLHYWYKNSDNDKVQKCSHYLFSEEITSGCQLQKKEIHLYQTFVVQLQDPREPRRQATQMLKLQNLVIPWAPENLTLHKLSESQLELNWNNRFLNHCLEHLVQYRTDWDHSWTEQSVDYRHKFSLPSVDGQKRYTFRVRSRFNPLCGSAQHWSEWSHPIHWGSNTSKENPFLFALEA

Chain of UniProt P01589 (P01589 22-240): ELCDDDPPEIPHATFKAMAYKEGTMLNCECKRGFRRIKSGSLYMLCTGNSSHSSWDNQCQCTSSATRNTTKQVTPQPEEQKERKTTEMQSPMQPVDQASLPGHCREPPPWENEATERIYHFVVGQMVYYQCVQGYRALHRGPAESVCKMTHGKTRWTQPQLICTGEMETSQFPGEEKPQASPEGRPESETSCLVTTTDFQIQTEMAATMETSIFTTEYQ

Kd (IL-2Rα (Homo sapiens)): 10 nM
Kd (IL-2Rβγ (Homo sapiens)): 1 nM
Substance: IL-2 (from UniProt P60568)
